Target: T1, soluble human FcRn (human, UniProt P55899 24-297; P61769 21-119)
T1 construct: Heterodimer of alpha chain and beta2-microglobulin; also called hFcRn
Assay: SPR (Biacore), pH 7.0

| Kd | Binder |
| --- | --- |
| 400 nM | IgG1-F1344 (antibody) heavy: QVQLQESGPGLVKPSETLSLTCAVSGHSISHDHAWSWVRQPPGEGLEWIGFISYSGITNYNPSLQGRVTISRDNSKNTLYLQMNSLRAEDTAVYYCARSLARTTAMDYWGEGTLVTVSSASTKGPSVFPLAPSSKSTSGGTAALGCLVKDYFPEPVTVSWNSGALTSGVHTFPAVLQSSGLYSLSSVVTVPSSSLGTQTYICNVNHKPSNTKVDKKVEPKSCDKTHTCPPCPAPELRGGPKVFLFPPKPKDTLYISRTPEVTCVVVDVSHEDPEVKFNWYVDGVEVHNAKTKPREEQYNSTYRVVSVLTVLHQDWLNGKEYKCKVSNKALPAPIEKTISKAKGQPREPQVYTLPPSRDELTKNQVSLTCLVKGFYPSDIAVEWESNGQPENNYKTTPPVLDSDGSFFLYSKLTVDKSRWQQGNVFSCSVMHEALHYHTTKKELSLSP light: not shown |
| 35 nM | F1601 (antibody) heavy: QVQLQESGPGLVKPSETLSLTCAVSGHSISHDHAWSWVRQPPGEGLEWIGFISYSGITNYNPSLQGRVTISRDNSKNTLYLQMNSLRAEDTAVYYCARSLARTTAMDYWGEGTLVTVSSASTKGPSVFPLAPSSKSTSGGTAALGCLVKDYFPEPVTVSWNSGALTSGVHTFPAVLQSSGLYSLSSVVTVPSSSLGTQTYICNVNHKPSNTKVDKKVEPKSCDKTHTCPPCPAPELRGGPKVFLFPPKPKDTLYITREPEVTCVVVDVSHEDPEVKFNWYVDGVEVHEAKTKPREEQYNSTYRVVSVLTVLHQDWLNGKEYKCKVSNKALPAPIEKTISKAKGQPREPQVYTLPPSRDELTKNQVSLTCLVKGFYPSDIAVEWESNGQPENNYKTTPPVLDSDGSFFLYSKLTVDKSRWQQGNVFSCSVMHEALDYHVTKKDLSLSP light: DIQMTQSPSSLSASVGDSVTITCQASTDISSHLNWYQQKPGKAPELLIYYGSHLLSGVPSRFSGSGSGTDFTFTISSLEAEDAATYYCGQGNRLPYTFGQGTKVEIERTVAAPSVFIFPPSDEQLKSGTASVVCLLNNFYPREAKVQWKVDNALQSGNSQESVTEQDSKDSTYSLSSTLTLSKADYEKHKVYACEVTHQGLSSPVTKSFNRGEC |
| 59 nM | F1603 (antibody) heavy: QVQLQESGPGLVKPSETLSLTCAVSGHSISHDHAWSWVRQPPGEGLEWIGFISYSGITNYNPSLQGRVTISRDNSKNTLYLQMNSLRAEDTAVYYCARSLARTTAMDYWGEGTLVTVSSASTKGPSVFPLAPSSKSTSGGTAALGCLVKDYFPEPVTVSWNSGALTSGVHTFPAVLQSSGLYSLSSVVTVPSSSLGTQTYICNVNHKPSNTKVDKKVEPKSCDKTHTCPPCPAPELRGGPKVFLFPPKPKDTLYITLEPEVTCVVVDVSHEDPEVKFNWYVDGVEVHNAKTKPREEQYNSTYRVVSVLTVLHQDWLNGKEYKCKVSNKALPAPIEKTISKAKGQPREPQVYTLPPSRDELTKNQVSLTCLVKGFYPSDIAVEWESNGQPENNYKTTPPVLDSDGSFFLYSKLTVDKSRWQQGNVFSCSVMHEALDYHVTKKELSLSP light: DIQMTQSPSSLSASVGDSVTITCQASTDISSHLNWYQQKPGKAPELLIYYGSHLLSGVPSRFSGSGSGTDFTFTISSLEAEDAATYYCGQGNRLPYTFGQGTKVEIERTVAAPSVFIFPPSDEQLKSGTASVVCLLNNFYPREAKVQWKVDNALQSGNSQESVTEQDSKDSTYSLSSTLTLSKADYEKHKVYACEVTHQGLSSPVTKSFNRGEC |
| 120 nM | IgG1-F1350 (antibody) heavy: QVQLQESGPGLVKPSETLSLTCAVSGHSISHDHAWSWVRQPPGEGLEWIGFISYSGITNYNPSLQGRVTISRDNSKNTLYLQMNSLRAEDTAVYYCARSLARTTAMDYWGEGTLVTVSSASTKGPSVFPLAPSSKSTSGGTAALGCLVKDYFPEPVTVSWNSGALTSGVHTFPAVLQSSGLYSLSSVVTVPSSSLGTQTYICNVNHKPSNTKVDKKVEPKSCDKTHTCPPCPAPELRGGPKVFLFPPKPKDTLYISRTPEVTCVVVDVSHEDPEVKFNWYVDGVEVHNAKTKPREEQYNSTYRVVSVLTVLHQDWLNGKEYKCKVSNKALPAPIEKTISKAKGQPREPQVYTLPPSRDELTKNQVSLTCLVKGFYPSDIAVEWESNGQPENNYKTTPPVLDSDGSFFLYSKLTVDKSRWQQGNVFSCSVMHEALHYHFTKKELSLSP light: not shown |
| 340 nM | IgG1-F1349 (antibody) heavy: QVQLQESGPGLVKPSETLSLTCAVSGHSISHDHAWSWVRQPPGEGLEWIGFISYSGITNYNPSLQGRVTISRDNSKNTLYLQMNSLRAEDTAVYYCARSLARTTAMDYWGEGTLVTVSSASTKGPSVFPLAPSSKSTSGGTAALGCLVKDYFPEPVTVSWNSGALTSGVHTFPAVLQSSGLYSLSSVVTVPSSSLGTQTYICNVNHKPSNTKVDKKVEPKSCDKTHTCPPCPAPELRGGPKVFLFPPKPKDTLYISRTPEVTCVVVDVSHEDPEVKFNWYVDGVEVHNAKTKPREEQYNSTYRVVSVLTVLHQDWLNGKEYKCKVSNKALPAPIEKTISKAKGQPREPQVYTLPPSRDELTKNQVSLTCLVKGFYPSDIAVEWESNGQPENNYKTTPPVLDSDGSFFLYSKLTVDKSRWQQGNVFSCSVMHEALHYHTTRKELSLSP light: not shown |
| 40 nM | F1566 (antibody) heavy: QVQLQESGPGLVKPSETLSLTCAVSGHSISHDHAWSWVRQPPGEGLEWIGFISYSGITNYNPSLQGRVTISRDNSKNTLYLQMNSLRAEDTAVYYCARSLARTTAMDYWGEGTLVTVSSASTKGPSVFPLAPSSKSTSGGTAALGCLVKDYFPEPVTVSWNSGALTSGVHTFPAVLQSSGLYSLSSVVTVPSSSLGTQTYICNVNHKPSNTKVDKKVEPKSCDKTHTCPPCPAPELRGGPKVFLFPPKPKDTLYITREPEVTCVVVDVSHEDPEVKFNWYVDGVEVHEAKTKPREEQYNSTYRVVSVLTVLHQDWLNGKEYKCKVSNKALPAPIEKTISKAKGQPREPQVYTLPPSRDELTKNQVSLTCLVKGFYPSDIAVEWESNGQPENNYKTTPPVLDSDGSFFLYSKLTVDKSRWQQGNVFSCSVMHEALDYHVTKKELSLSP light: DIQMTQSPSSLSASVGDSVTITCQASTDISSHLNWYQQKPGKAPELLIYYGSHLLSGVPSRFSGSGSGTDFTFTISSLEAEDAATYYCGQGNRLPYTFGQGTKVEIERTVAAPSVFIFPPSDEQLKSGTASVVCLLNNFYPREAKVQWKVDNALQSGNSQESVTEQDSKDSTYSLSSTLTLSKADYEKHKVYACEVTHQGLSSPVTKSFNRGEC |
| 160 nM | IgG1-F1351 (antibody) heavy: QVQLQESGPGLVKPSETLSLTCAVSGHSISHDHAWSWVRQPPGEGLEWIGFISYSGITNYNPSLQGRVTISRDNSKNTLYLQMNSLRAEDTAVYYCARSLARTTAMDYWGEGTLVTVSSASTKGPSVFPLAPSSKSTSGGTAALGCLVKDYFPEPVTVSWNSGALTSGVHTFPAVLQSSGLYSLSSVVTVPSSSLGTQTYICNVNHKPSNTKVDKKVEPKSCDKTHTCPPCPAPELRGGPKVFLFPPKPKDTLYISRTPEVTCVVVDVSHEDPEVKFNWYVDGVEVHNAKTKPREEQYNSTYRVVSVLTVLHQDWLNGKEYKCKVSNKALPAPIEKTISKAKGQPREPQVYTLPPSRDELTKNQVSLTCLVKGFYPSDIAVEWESNGQPENNYKTTPPVLDSDGSFFLYSKLTVDKSRWQQGNVFSCSVMHEALHYHFTRKELSLSP light: not shown |
